This test has as its target Protein A on the ProA BLI sensor (Staphylococcus aureus) (UniProt P38507). The test can be described thus: BLI.

As a reminder, the koff is the rate constant with which the complex falls apart. Low readings indicate slow dissociation, high ones fast dissociation. The term kon denotes the rate constant with which the complex forms. “ChromPure mouse IgG (whole molecule) (antibody)”: the koff was 0.00121 s⁻¹ and the kon turned out to be 92500 M⁻¹ s⁻¹.

Values taken from publication PMC12649849.
